{"source": "patent US20200405889A1", "about": "(WASHINGTON UNIVERSITY, published 2020)", "binders": {"B1": {"name": "^64CuAuNCs-ECL1i (other)", "peptide": "[dL]G[dT][dF][dL][dK][dC]", "modifications": "not fully specified (residue 7); also: peptide joined via TA-PEG-Maleimide to a gold nanocluster doped with 64Cu, copy number not given here"}}, "molecular_target": "mouse chemokine (C-C motif) receptor 2 (CCR2) (mouse, UniProt P51683 1-373)", "sequence (P51683 whole entry)": "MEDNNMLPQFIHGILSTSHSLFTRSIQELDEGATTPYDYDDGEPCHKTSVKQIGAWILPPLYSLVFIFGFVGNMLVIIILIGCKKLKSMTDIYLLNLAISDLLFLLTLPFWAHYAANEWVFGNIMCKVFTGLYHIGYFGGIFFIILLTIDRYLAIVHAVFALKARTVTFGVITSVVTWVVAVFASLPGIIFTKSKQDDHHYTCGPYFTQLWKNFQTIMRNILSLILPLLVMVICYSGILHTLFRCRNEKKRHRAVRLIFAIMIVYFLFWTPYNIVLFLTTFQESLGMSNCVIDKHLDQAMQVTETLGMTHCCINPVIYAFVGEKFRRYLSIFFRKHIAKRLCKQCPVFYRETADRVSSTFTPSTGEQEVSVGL", "assay": "cell-based or functional assay", "note": "Where no end group is shown, it is not given here. [ ]: non-standard residue; d: D form.", "data": [{"binder": "B1", "values": [{"measurement": "graft/native lung uptake ratio, PET at 4 hours", "value": 7.24, "unit": "ratio"}, {"measurement": "graft/native lung uptake ratio, PET at 24 hours", "value": 8.44, "unit": "ratio"}, {"measurement": "graft/native lung uptake ratio, PET, printed 'At 4 hours after transplantation'", "value": 6.58, "unit": "ratio"}]}]}
